± gives the uncertainty stated by the source.
Assay: self-splicing fitness, log relative to wild type (ln ratio); higher = more splicing; Tetrahymena group I intron in knt gene, E. coli kanamycin selection, DiMSum; sequences stand for … in CUCUCU…GGAGGGAAAAGUUAUCAGGCAUGCACCUGGUAGCUAGUCUUUAAACCAAUAGAUUGCAUCGGUUUAAAAGGCAAGACCGUCAAAUUGCGGGAAAGGGGUCAACAGCCGUUCAGUACCAAGUCUCAGGGGAAACUUUGAGAUGGCCUUGCAAAGGGUAUGGUAAUAAGCUGACGGACAUGGUCCUAACCACGCAGCCAAGUCCUAAGUCAACAGAUCUUCUGUUGAUAUGGAUGCAGUUCACAGACUAAAUGUCGGUCGGGGAAGAUGUAUUCUUCUCAUAAGAUAUAGUCGGACCUCUCCUUAAUGGGAGCUAGCGGAUGAAGUGAUGCAACACUGGAGCCGCUGGGAACUAAUUUGUAUGCGAAAGUAUAUUGAUUAGUUUUGGAGUACUCGUGGUCG
In short: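 The eight P1ex-region nucleotides of an intron in the knt kanamycin-resistance gene on pET-22b(+) were all randomised and the library put into E. coli BL21(DE3). Six replicate transformations were grown overnight at 37°C or 30°C on LB agar with or without 25 μg/mL kanamycin, together with 100 μg/mL carbenicillin, 50 μM IPTG and 0.2% rhamnose. Colonies were pooled and amplicon-sequenced on an Illumina HiSeq 2500. Fitness from DiMSum is the error-weighted combination of wild-type-normalised replicate fold changes, kanamycin over none.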

Row | Sequence | self-splicing fitness (ln) (30 °C) | self-splicing fitness (ln) (37 °C)
1 | AGUUAGCAAUAUUACGCGAG | -2.52 ± 0.22 | -1.52 ± 0.21
2 | AGUUAGCAAUAUUACGCUUA | -1.3 ± 0.15 | -0.343 ± 0.16
3 | AGUUAGCAAUAUUACGGAAA | -2.89 ± 0.35 | -2.55 ± 0.44
4 | AGUUAGCAAUAUUACGGAAU | -3.73 ± 0.46 | -2 ± 0.43
5 | AGUUAGCAAUAUUACGGCGA | 0.115 ± 0.16 | 0.709 ± 0.16
6 | AGUUAGCAAUAUUACGGCGG | -0.53 ± 0.085 | -0.514 ± 0.13
7 | AGUUAGCAAUAUUACGGCUU | -2.22 ± 0.23 | -1.04 ± 0.22
8 | AGUUAGCAAUAUUACGGGCA | -0.103 ± 0.13 | -0.162 ± 0.15
9 | AGUUAGCAAUAUUACGGUAA | -2.21 ± 0.17 | -1.53 ± 0.12
10 | AGUUAGCAAUAUUACGGUGG | -1.16 ± 0.18 | -2.42 ± 0.27
11 | AGUUAGCAAUAUUACGUACC | -0.585 ± 0.24 | -0.376 ± 0.28
12 | AGUUAGCAAUAUUACGUGUC | -2.09 ± 0.33 | -1.42 ± 0.36
13 | AUAAAGCAAUAUUACGAAUA | -0.578 ± 0.14 | -0.302 ± 0.26
14 | AUAAAGCAAUAUUACGAGAG | -2.29 ± 0.18 | -1.03 ± 0.15
15 | AUAAAGCAAUAUUACGAGGA | -3.28 ± 0.23 | -1.74 ± 0.19
16 | AUAAAGCAAUAUUACGAGUU | -1.9 ± 0.081 | -0.509 ± 0.085
17 | AUAAAGCAAUAUUACGAUCA | 0.0672 ± 0.054 | 0.203 ± 0.077
18 | AUAAAGCAAUAUUACGAUCU | 0.387 ± 0.11 | 0.308 ± 0.097
19 | AUAAAGCAAUAUUACGAUUC | -0.837 ± 0.085 | -0.228 ± 0.097
20 | AUAAAGCAAUAUUACGCCUC | -0.875 ± 0.14 | -0.532 ± 0.2
21 | AUAAAGCAAUAUUACGCGCG | -0.354 ± 0.09 | 0.713 ± 0.12
22 | AUAAAGCAAUAUUACGCUAC | -3.14 ± 0.25 | -2.99 ± 0.33
23 | AUAAAGCAAUAUUACGGGAA | -1.08 ± 0.097 | -0.426 ± 0.14
24 | AUAAAGCAAUAUUACGUAAC | -1.92 ± 0.13 | -0.901 ± 0.17

Row | Sequence | self-splicing fitness (ln) (30 °C) | self-splicing fitness (ln) (37 °C)
25 | AUAAAGCAAUAUUACGUAUU | -2.73 ± 0.12 | -1.79 ± 0.13
26 | AUAAAGCAAUAUUACGUCUC | -1.4 ± 0.093 | -0.541 ± 0.13
27 | AUAAAGCAAUAUUACGUCUU | 0.183 ± 0.05 | 0.29 ± 0.073
28 | AUAAAGCAAUAUUACGUUCG | -0.321 ± 0.085 | 0.17 ± 0.13
29 | AUAAAGCAAUAUUACGUUGA | -2.1 ± 0.095 | -1.77 ± 0.13
30 | AUACAGCAAUAUUACGAACG | -0.79 ± 0.12 | -1.44 ± 0.17
31 | AUACAGCAAUAUUACGAAUU | -2.71 ± 0.15 | -1.16 ± 0.14
32 | AUACAGCAAUAUUACGACCC | -1.1 ± 0.21 | -0.179 ± 0.17
33 | AUACAGCAAUAUUACGAGUC | -3.23 ± 0.19 | -2.57 ± 0.19
34 | AUACAGCAAUAUUACGAUUU | -0.0463 ± 0.053 | 0.498 ± 0.073
35 | AUACAGCAAUAUUACGCACA | -0.789 ± 0.11 | 0.62 ± 0.12
36 | AUACAGCAAUAUUACGCAUG | -1.44 ± 0.094 | -0.421 ± 0.12
37 | AUACAGCAAUAUUACGCCCU | -0.0578 ± 0.06 | -0.247 ± 0.072
38 | AUACAGCAAUAUUACGCCGA | -1.98 ± 0.18 | -1.51 ± 0.19
39 | AUACAGCAAUAUUACGCCGU | -1.34 ± 0.099 | -0.0561 ± 0.1
40 | AUACAGCAAUAUUACGCUAG | -1.61 ± 0.079 | -1.23 ± 0.096
41 | AUACAGCAAUAUUACGCUCC | -1.47 ± 0.16 | -0.769 ± 0.21
42 | AUACAGCAAUAUUACGGGCA | -0.996 ± 0.099 | -0.765 ± 0.1
43 | AUACAGCAAUAUUACGGUGA | -0.847 ± 0.063 | 0.283 ± 0.077
44 | AUACAGCAAUAUUACGGUUU | -0.703 ± 0.048 | 0.226 ± 0.059
45 | AUACAGCAAUAUUACGUAAU | -1.43 ± 0.085 | -0.584 ± 0.12
46 | AUACAGCAAUAUUACGUAUC | -4.19 ± 0.21 | -2.6 ± 0.17
47 | AUACAGCAAUAUUACGUGAA | -2.19 ± 0.077 | -1.08 ± 0.076
48 | AUACAGCAAUAUUACGUGCG | -0.886 ± 0.081 | -0.3 ± 0.091

Row | Sequence | self-splicing fitness (ln) (30 °C) | self-splicing fitness (ln) (37 °C)
49 | AUACAGCAAUAUUACGUGGC | -3.22 ± 0.12 | -2.39 ± 0.15
50 | AUAGAGCAAUAUUACGAACG | -2.4 ± 0.21 | -0.83 ± 0.19
51 | AUAGAGCAAUAUUACGAACU | -0.774 ± 0.13 | 0.227 ± 0.18
52 | AUAGAGCAAUAUUACGAAUA | -4.03 ± 0.47 | -2.1 ± 0.29
53 | AUAGAGCAAUAUUACGACGA | -0.935 ± 0.093 | -0.479 ± 0.13
54 | AUAGAGCAAUAUUACGACUG | -2.11 ± 0.13 | -0.786 ± 0.18
55 | AUAGAGCAAUAUUACGCAAG | -2.97 ± 0.2 | -1.24 ± 0.22
56 | AUAGAGCAAUAUUACGCUUC | -2.52 ± 0.24 | -1.47 ± 0.25
57 | AUAGAGCAAUAUUACGGGGU | -3.46 ± 0.21 | -3.53 ± 0.23
58 | AUAGAGCAAUAUUACGGUCC | -2.61 ± 0.38 | –
59 | AUAGAGCAAUAUUACGGUGG | -1.24 ± 0.26 | –
60 | AUAGAGCAAUAUUACGUAAG | -1.94 ± 0.22 | -1.34 ± 0.25
61 | AUAGAGCAAUAUUACGUAUA | -2.1 ± 0.19 | -0.371 ± 0.21
62 | AUAGAGCAAUAUUACGUCGA | -2.82 ± 0.19 | -1.04 ± 0.17
63 | AUAGAGCAAUAUUACGUCUC | -0.924 ± 0.15 | -0.745 ± 0.16
64 | AUAGAGCAAUAUUACGUUAU | -0.975 ± 0.089 | -0.177 ± 0.11
65 | AUAGAGCAAUAUUACGUUGC | -2.95 ± 0.2 | -2.05 ± 0.26
66 | AUAUAGCAAUAUUACGAAAC | -2.85 ± 0.29 | -2.03 ± 0.34
67 | AUAUAGCAAUAUUACGACUA | -0.8 ± 0.3 | -0.351 ± 0.29
68 | AUAUAGCAAUAUUACGAGCU | -2.13 ± 0.1 | -1.11 ± 0.1
69 | AUAUAGCAAUAUUACGAGGA | – | -2.44 ± 0.38
70 | AUAUAGCAAUAUUACGAGGU | -3.66 ± 0.26 | -1.44 ± 0.15
71 | AUAUAGCAAUAUUACGCAAU | -1.49 ± 0.17 | -0.77 ± 0.22
72 | AUAUAGCAAUAUUACGCAGG | -3.74 ± 0.31 | -1.69 ± 0.23

Row | Sequence | self-splicing fitness (ln) (30 °C) | self-splicing fitness (ln) (37 °C)
73 | AUAUAGCAAUAUUACGCCGC | -2.58 ± 0.49 | –
74 | AUAUAGCAAUAUUACGCCGG | -3.65 ± 0.37 | -0.796 ± 0.3
75 | AUAUAGCAAUAUUACGCCUA | -0.306 ± 0.17 | -0.0941 ± 0.12
76 | AUAUAGCAAUAUUACGCCUG | -2.24 ± 0.23 | -1.6 ± 0.24
77 | AUAUAGCAAUAUUACGCGCA | -0.342 ± 0.15 | -0.724 ± 0.14
78 | AUAUAGCAAUAUUACGGAUG | -3.03 ± 0.25 | -2.15 ± 0.28
79 | AUAUAGCAAUAUUACGGCAA | -0.751 ± 0.18 | -0.989 ± 0.19
80 | AUAUAGCAAUAUUACGGCUG | -0.816 ± 0.14 | 0.663 ± 0.19
81 | AUAUAGCAAUAUUACGGGCC | -2.81 ± 0.3 | -2.86 ± 0.43
82 | AUAUAGCAAUAUUACGGGUU | -3.43 ± 0.14 | -2.51 ± 0.14
83 | AUAUAGCAAUAUUACGGUAU | -3.75 ± 0.32 | -1.45 ± 0.2
84 | AUAUAGCAAUAUUACGGUGU | -2.03 ± 0.16 | -1.38 ± 0.17
85 | AUAUAGCAAUAUUACGUCAU | -2.43 ± 0.14 | -1.15 ± 0.14
86 | AUAUAGCAAUAUUACGUUUG | -2.71 ± 0.23 | -2.21 ± 0.26
87 | AUCAAGCAAUAUUACGAAAA | -2.84 ± 0.36 | -2.03 ± 0.27
88 | AUCAAGCAAUAUUACGAAUA | -2.36 ± 0.21 | -1.44 ± 0.17
89 | AUCAAGCAAUAUUACGACAU | 0.105 ± 0.011 | 0.377 ± 0.032
90 | AUCAAGCAAUAUUACGACCC | -1.34 ± 0.17 | -0.0224 ± 0.3
91 | AUCAAGCAAUAUUACGACUG | -1.59 ± 0.11 | -1.27 ± 0.13
92 | AUCAAGCAAUAUUACGAGAC | -3.01 ± 0.3 | -1.87 ± 0.19
93 | AUCAAGCAAUAUUACGAUCU | -1.37 ± 0.1 | -0.575 ± 0.12
94 | AUCAAGCAAUAUUACGAUUA | -1.28 ± 0.11 | -0.622 ± 0.13
95 | AUCAAGCAAUAUUACGCAAC | -2.61 ± 0.14 | -2.37 ± 0.22
96 | AUCAAGCAAUAUUACGCGUC | -3.45 ± 0.23 | -1.41 ± 0.16
